In assay [1] the target is T1, biotinylated CD3 recombinant antigen (CD3εγ) (Homo sapiens (Human), UniProt P07766 23-126; P09693 23-116, Biotinylated; site and chemistry not stated. The letters do not carry the biotin.).
T1 construct: also called CD3e antigen; copies: 1 + 1
Put plainly: BLI, biotinylated antigen on SA probe, antibody as analyte.

Assay [2] deals with T2, human GPRC5D (human, UniProt Q9NZD1 1-345).
T2 construct: Full length, on stably transfected cells (HEK293-hGPRC5D, CHO-hGPRC5D); Also used here for the endogenous GPRC5D of the GPRC5D+ myeloma lines MM.1R, MM.1S and NCI-H929; also called hGPRC5D; G-protein-coupled receptor family C group 5 member D
T2 sequence (Q9NZD1 whole entry): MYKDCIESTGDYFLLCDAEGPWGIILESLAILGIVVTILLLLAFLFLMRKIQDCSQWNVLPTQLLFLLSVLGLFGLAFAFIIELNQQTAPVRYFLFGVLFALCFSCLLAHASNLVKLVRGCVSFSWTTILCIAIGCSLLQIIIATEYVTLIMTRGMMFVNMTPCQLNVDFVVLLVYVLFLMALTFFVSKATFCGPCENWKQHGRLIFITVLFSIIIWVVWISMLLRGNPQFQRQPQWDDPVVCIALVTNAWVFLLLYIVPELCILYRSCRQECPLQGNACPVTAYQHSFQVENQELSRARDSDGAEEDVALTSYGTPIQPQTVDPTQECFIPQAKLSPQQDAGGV
Put plainly: flow cytometry, HEK293-hGPRC5D cells.
Protocol: Cell suspensions of HEK293-hGPRC5D and HEK293-hBCMA stably transfected cells in logarithmic growth phase were adjusted to 5×10⁵ cells/ml. Then, 100 μl/well of the cell suspension was added to a 96-well U-shaped plate, and centrifuged at 300 g for 5 min. The supernatant was discarded. 100 μL per well of serially diluted antibody was added, and incubated at 4° C. for 60 min. The secondary antibody 50 μL/well of Alexa Fluro647 labeled goat anti-human IgG Fc (1:300 dilution) was added, and incubated on ice for 20 min. After washing once, 50 μL/well of PI solution was added, incubated for 5 min, and detected by flow cytometry.

Assay [3] concerns the target T2, human GPRC5D. Put plainly: cell-based or functional assay.

These results are taken from patent US20260116966A1 (KEYMED BIOSCIENCES CHENGDU, published 2026).

T1 sequence (P07766 23-126 limits assumed, chain 1 of 2): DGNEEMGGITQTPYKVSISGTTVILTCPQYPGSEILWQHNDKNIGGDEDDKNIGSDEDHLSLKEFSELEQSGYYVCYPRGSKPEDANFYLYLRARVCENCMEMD
T1 sequence (P09693 23-116 limits assumed, chain 2 of 2): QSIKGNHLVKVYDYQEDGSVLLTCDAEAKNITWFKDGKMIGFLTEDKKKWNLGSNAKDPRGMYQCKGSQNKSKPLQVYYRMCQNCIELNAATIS

B1: GPRC5D × BCMA × CD3 triTCE-v3 trispecific antibody (other)
light 1: QAVVTQEPSLTVSPGGTVTLTCRSSTGAVTTSNYANWVQEKPGQAPRGLIGGTNKRAPWTPARFSGSLLGGKAALTITGAQAEDEAEYYCVLWYSNLWVFGGGTKLTVLGQPKAAPSVTLFPPSSEELQANKATLVCLISDFYPGAVTVAWKADSSPVKAGVETTTPSKQSNNKYAASSYLSLTPEQWKSHRSYSCQVTHEGSTVEKTVAPTECS
heavy 1: DIQMTQSPSSLSASVGDRVTITCQASQNVGTNVAWYQQKPGQAPKALIYSASYLNSGVPSRFSGSGSGTDFTFTISSLQPEDIATYFCQQYNSYLLTFGCGTKVEIKGGGGSGGGGSGGGGSQVQLVQSGAEVKKPGSSVKVSCKASGYSFTGYTMNWVRQAPGQCLEWMGLINPYNGGTRYNQKFQGRVTITADESTSTAYMELSSLRSEDTAVYYCARWALRYGMDYWGQGTLVTVSSGGGGSGGGGSGGGGSEVQLVESGGGLVQPGGSLRLSCAASGFTFNTYAMNWVRKAPGKGLEWVGRIRSKYNNYATYYADSVKDRFTISRDDSKNSLYLQMNSLKTEDTAVYYCVRHGNFGNSYVSWFAYWGQGTLVTVSSASTKGPSVFPLAPCSRSTSESTAALGCLVKDYFPEPVTVSWNSGALTSGVHTFPAVLQSSGLYSLSSVVTVPSSSLGTKTYTCNVDHKPSNTKVDKRVESKYGPPCPPCPAPEFEGGPSVFLFPPKPKDTLMISRTPEVTCVVVDVSQEDPEVQFNWYVDGVEVHNAKTKPREEQFNSTYRVVSVLTVLHQDWLNGKEYKCKVSNKGLASSIEKTISKAKGQPREPQVYTLPPCQEEMTKNQVSLWCLVKGFYPSDIAVEWESNGQPENNYKTTPPVLDSDGSFFLYSKLTVDKSRWQEGNVFSCSVMHEALHNHYTQKSLSLSLGK
light 2: DIVLTQSPASLAVSPGQRATITCRASKSVSTSGYSYMHWYQKKPGQPPKLLIYLASNLESGVPARFSGSGSGTDFTLTINPVEAEDTANYYCQHSRELPWTFGQGTKVEIKRTVAAPSVFIFPPSDEQLKSGTASVVCLLNNFYPREAKVQWKVDNALQSGNSQESVTEQDSKDSTYSLSSTLTLSKADYEKHKVYACEVTHQGLSSPVTKSFNRGEC
heavy 2: QVQLVQSGSELKKPGASVKVSCKASGYIFTNFGMNWVREAPGQGLEWMGWINTYTGEQIYADGFTGRFVFSLDTSVSTAYLQISSLKAEDTAVYFCARGEIYYGYDVGFVYWGQGTLVTVSS
notes: Trispecific antibody: GPRC5D scFv fused to the N-terminus of the heavy chain of the CD3 arm
B1: the Kd in assay [1] stood at 58.2 nM. In addition, in the assay with human GPRC5D [2], the EC50 came out at 2.7 nM. Moreover, the “TDCC EC50 (nM), HEK293-hGPRC5D” value with human GPRC5D [3] was determined as 0.278 nM.
